We go through six molecules from patent US20200339702A1 (ULTRAHUMAN THIRTEEN, published 2020).

The target in test [1] is T1, human ERBB3 His tagged, monomeric (human, UniProt P21860 20-643, biotinylated in the Alphascreen assays (sites not given)).
T1 construct: Used unbiotinylated as Biacore analyte and biotinylated in Alphascreen; treated as one molecule; also called human ERBB3-His (Acrobiosystems); biotinylated monomeric human ERBB3
Briefly: SPR (Biacore), captured IgG, monomeric ERBB3-His analyte. The protocol:
(§1) Affinity (KD) of purified IgGs was determined via SPR with antigen in-solution on a Biacore® 3000 (GE). A mouse anti-human antibody (CH1 specific) was immobilized on a CM5 Sensor Chip to a level of 2000 RU in acetate buffer at pH 4.5 using amine coupling following the Wizard instructions for two channels. One channel was used for background signal correction. The standard running buffer HBS-EP pH 7.4 was used. Regeneration was performed with a single injection of 10 μl of 10 mM Glycine at pH 1.5 at […]. IgG samples were injected for 2 minutes at 50 nM at 30 μl/min followed by an off-rate of 60 seconds. The monomeric antigen (human ERBB3 His tagged or rhesus monkey ERBB3 His tag) was injected in two fold serial dilutions from 3 nM down to 0.2 nM, for 2 minutes at 30 μl/min followed by an off-rate of 300 seconds. The obtained sensorgrams were analysed using the Biacore® 3000 evaluation (BlAevaluation) software. The KD was calculated by simultaneous fitting of the association and dissociation phases to a 1:1 Langmuir binding model.
(§2) Biacore® analyses of binding affinity were performed for all IgGs to solution-phase, monomeric human and rhesus ERBB3 proteins.

Test [2] has as its target T2, rhesus monkey ERBB3 His tag, monomeric (rhesus monkey (Macaca mulatta), UniProt P21860 20-643 (human entry), limits assumed).
T2 chain: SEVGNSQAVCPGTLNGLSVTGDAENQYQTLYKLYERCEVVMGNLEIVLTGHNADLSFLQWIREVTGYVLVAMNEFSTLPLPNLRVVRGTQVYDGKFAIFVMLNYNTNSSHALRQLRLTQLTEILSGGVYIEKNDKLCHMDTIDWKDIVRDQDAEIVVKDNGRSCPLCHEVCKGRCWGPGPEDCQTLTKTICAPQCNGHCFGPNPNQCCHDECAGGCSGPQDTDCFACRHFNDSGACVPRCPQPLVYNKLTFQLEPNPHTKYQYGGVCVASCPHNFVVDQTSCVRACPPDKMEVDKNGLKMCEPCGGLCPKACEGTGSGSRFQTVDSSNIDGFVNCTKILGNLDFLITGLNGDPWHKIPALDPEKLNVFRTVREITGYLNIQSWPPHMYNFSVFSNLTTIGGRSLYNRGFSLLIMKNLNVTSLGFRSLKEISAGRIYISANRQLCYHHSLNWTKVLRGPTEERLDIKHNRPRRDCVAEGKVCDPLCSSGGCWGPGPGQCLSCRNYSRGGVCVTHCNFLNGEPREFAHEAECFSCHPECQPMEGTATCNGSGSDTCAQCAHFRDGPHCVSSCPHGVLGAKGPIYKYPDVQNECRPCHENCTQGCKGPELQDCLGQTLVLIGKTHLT
The description is as above. On the procedure: as §1, §2

For test [3], the target named is T3, human ERBB3 on transiently transfected HEK-293 cells (human, UniProt P21860 20-1342).
T3 construct: also called human ERBB3+ HEK-293 cells
As to the kind of experiment: flow cytometry, human ERBB3-transfected HEK-293. On the procedure:
(§3) Purified IgGs were tested in FACs for binding to human and rhesus monkey ERBB3 expressed on transiently transfected HEK-293 cells and HEK-293 wild-type cells. The IgG samples were titrated in three-fold serial dilutions starting at 500 nM to 0.008 nM. Binding of IgGs was detected with a mouse anti-human IgG conjugated to FITC. Results were analyzed by examining the Mean Fluorescence Intensity (MFI) of 10000 cells per sample in the BL-1 channel detector of a flow cytometer (Attune™ NxT Acoustic Focusing Cytometer, Invitrogen/ThermoFisher Scientific).
(§4) Antibodies to ERBB3 were analysed for concentration-dependent binding at the cell surface via flow cytometry. HEK-293 cells were transiently transfected with either human or rhesus ERBB3 full-length cDNAs. Anti-ERBB3 IgGs and an isotype control were then all tested in IgG1null format, over a concentration range of 500-0.008 nM for binding to human (FIG. 5A) and rhesus (FIG. 5B) transfected cells.
(In general: Flow cytometry measures light scatter and fluorescence of single cells or particles in a stream.)

Test [4] addresses T4, rhesus ERBB3 on transiently transfected HEK-293 cells (rhesus monkey (Macaca mulatta), UniProt P21860 20-1342 (human entry)).
T4 construct: also called rhesus ERBB3+ HEK-293 cells
T4 chain: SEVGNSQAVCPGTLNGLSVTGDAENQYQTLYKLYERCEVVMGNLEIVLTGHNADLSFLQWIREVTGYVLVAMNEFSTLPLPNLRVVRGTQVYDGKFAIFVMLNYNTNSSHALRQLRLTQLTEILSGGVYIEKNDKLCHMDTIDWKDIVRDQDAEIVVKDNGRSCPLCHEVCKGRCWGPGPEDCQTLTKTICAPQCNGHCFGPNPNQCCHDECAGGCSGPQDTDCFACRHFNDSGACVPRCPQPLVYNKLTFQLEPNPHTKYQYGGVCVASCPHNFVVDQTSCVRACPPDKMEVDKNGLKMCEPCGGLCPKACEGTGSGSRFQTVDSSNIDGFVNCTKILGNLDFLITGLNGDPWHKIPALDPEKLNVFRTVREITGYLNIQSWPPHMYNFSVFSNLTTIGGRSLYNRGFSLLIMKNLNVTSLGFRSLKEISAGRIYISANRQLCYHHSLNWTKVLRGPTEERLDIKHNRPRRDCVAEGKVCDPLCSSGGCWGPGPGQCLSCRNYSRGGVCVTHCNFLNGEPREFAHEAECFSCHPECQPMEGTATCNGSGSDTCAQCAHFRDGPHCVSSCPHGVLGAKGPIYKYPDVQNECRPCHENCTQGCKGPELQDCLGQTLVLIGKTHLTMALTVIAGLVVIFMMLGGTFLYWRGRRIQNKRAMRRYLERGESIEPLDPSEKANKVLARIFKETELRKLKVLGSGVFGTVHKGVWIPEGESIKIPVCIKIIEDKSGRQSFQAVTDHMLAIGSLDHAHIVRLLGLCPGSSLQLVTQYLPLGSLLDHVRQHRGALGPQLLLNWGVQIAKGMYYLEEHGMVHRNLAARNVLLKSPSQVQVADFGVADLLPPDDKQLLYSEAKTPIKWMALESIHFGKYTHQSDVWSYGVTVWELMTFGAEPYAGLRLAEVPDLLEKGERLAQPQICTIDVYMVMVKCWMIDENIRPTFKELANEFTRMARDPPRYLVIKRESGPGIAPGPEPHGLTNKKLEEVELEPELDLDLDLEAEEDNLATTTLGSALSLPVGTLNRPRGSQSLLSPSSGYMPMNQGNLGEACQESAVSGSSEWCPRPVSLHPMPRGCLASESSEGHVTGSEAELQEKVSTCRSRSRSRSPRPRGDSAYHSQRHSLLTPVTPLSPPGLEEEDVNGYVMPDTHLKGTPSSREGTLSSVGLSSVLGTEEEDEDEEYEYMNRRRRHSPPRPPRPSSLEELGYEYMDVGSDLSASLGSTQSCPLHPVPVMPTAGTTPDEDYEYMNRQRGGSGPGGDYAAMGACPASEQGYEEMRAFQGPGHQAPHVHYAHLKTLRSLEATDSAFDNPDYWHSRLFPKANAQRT
Briefly: flow cytometry, rhesus ERBB3-transfected HEK-293. On the procedure: as §3, §4

B1: 15G11 IgG1null (antibody, V domains shown)
VH: QVQLVESGGGLVKPGGSLRLSCAASGFTFSDYGMSWIRQAPGKGLEWVSTISDSGSYTYYPDSVKGRFTISRDNAKNSLYLQMNSLRAEDTAVYYCARELGDYDGFDYWGQGTLVTVSS
VL: DIQMTQSPSSLSASVGDRVTITCRASQEISSYLSWYQQKPGKAPKLLIYAASSLDSGVPSRFSGSGSGTDFTLTISSLQPEDFATYYCLQYDSTPYTFGGGTKVEIK
notes: Human IgG1null (L234A, L235A, G237A) and human Ckappa
A word on the Kd: it is the concentration at which binding is half-saturated. For orientation: koff means the rate constant with which the complex falls apart. In general, kon refers to a measure of how fast the partners come together. Turning to B1, in test [1], the Kd was determined as 0.078 nM, the koff came to 0.0012 s⁻¹ and the kon worked out at 1.6e+07 M⁻¹ s⁻¹. Also, in test [2], the Kd is 0.33 nM, the koff turned out to be 0.0011 s⁻¹ and the kon came out at 3.3e+06 M⁻¹ s⁻¹. The “maximum MFI, fold over isotype control background” value (shortened to “maximum MFI, fold”) in test [3] was more than 20 fold. Moreover, the “maximum MFI, fold” value in test [4] was more than 20 fold.

B2: 15D03 IgG1null (antibody, V domains shown)
VH: QVQLVESGGGLVKPGGSLRLSCAASGFTFSDYGMSWIRQAPGKGLEWVSTISDSGSYIYYADSVKGRFTISRDNAKNSLYLQMNSLRAEDTAVYYCAREWGDYDGFDHWGQGTLVTVSS
VL: DIQMTQSPSSLSASVGDRVTITCRASQEISSYLSWYQQKPGKAPKLLIYAASSLQSGVPSRFSGSGSGTDFTLTISSLQPEDFATYYCLQYDSTPLTFGGGTKVEIK
notes: Human IgG1null and human Ckappa
As to B2, in test [1], binding was put at a Kd of 0.26 nM, the koff came out at 0.003 s⁻¹ and the kon turned out to be 1.1e+07 M⁻¹ s⁻¹. Besides, in test [2], the Kd is 0.26 nM, the koff is 0.0047 s⁻¹ and the kon amounted to 1.8e+07 M⁻¹ s⁻¹. Moreover, in test [3], the “maximum MFI, fold” value was more than 20 fold. For the same molecule, in test [4], the “maximum MFI, fold” value is more than 20 fold.

B3: 15E02 IgG1null (antibody, V domains shown)
VH: QVQLVESGGGLVKPGGSLRLSCAASGFTFSDYGMSWIRQAPGKGLEWVSTISDSGTTIYYADNVKGRFTISRDNAKNSLYLQMNSLRAEDTAVYYCAREYGDYDGFDYWGQGTLVTVSS
VL: DIQMTQSPSSLSASVGDRVTITCRASQSISSYLSWYQQKPGKAPKLLIYAASSLQSGVPSRFSGSGSGTDFTLTISSLQPEDFATYYCLQYDSTPLTFGGGTKVEIK
notes: as for B2
As for B3, in test [1], the Kd was found to be 0.61 nM, the koff worked out at 0.0039 s⁻¹ and the kon came to 6.3e+06 M⁻¹ s⁻¹. In addition, in test [2], the Kd came out at 2.5 nM, the koff turned out to be 0.0095 s⁻¹ and the kon is 3.7e+06 M⁻¹ s⁻¹. For the same molecule, the “maximum MFI, fold” value in test [3] is more than 20 fold. For the same molecule, the “maximum MFI, fold” value in test [4] is more than 20 fold.

B4: 15D10 IgG1null (antibody, V domains shown)
VH: QVQLVESGGGLVKPGGSLRLSCAASGFTFSDYGMSWIRQAPGKGLEWVSTISDGGSYTYYADNVKGRFTISRDNAKNSLYLQMNSLRAEDTAVYYCAREWGDYDGFDFWGQGTLVTVSS
VL: DIQMTQSPSSLSASVGDRVTITCRASQSISSYLSWYQQKPGKAPKLLIYAASTLQSGVPSRFSGSGSGTDFTLTISSLQPEDFATYYCLQYDSTPLTFGGGTKVEIK
notes: as for B1
In test [1], B4 yielded a Kd of 0.14 nM, a koff of 0.0019 s⁻¹ and a kon of 1.4e+07 M⁻¹ s⁻¹. For the same molecule, in test [2], the Kd amounted to 0.54 nM, the koff turned out to be 0.0018 s⁻¹ and the association rate constant (kon) turned out to be 3.3e+06 M⁻¹ s⁻¹. Moreover, the “maximum MFI, fold” value in test [3] was more than 20 fold. For the same molecule, the “maximum MFI, fold” value in test [4] was more than 20 fold.

B5: 09H02 IgG1null (antibody, V domains shown)
VH: QVQLVESGGGLVKPGGSLRLSCAASGFTFSDYSMSWIRQAPGKGLEWVSTISDGGSYTYYPDSVKGRFTISRDNAKNSLYLQMNSLRAEDTAVYYCARELGDYDGFDYWGQGTLVTVSS
VL: DIQMTQSPSSLSASVGDRVTITCRASQSISSYLSWYQQKPGKAPKLLIYAASSLQSGVPSRFSGSGSGTDFTLTISSLQPEDFATYYCLQYDSTPLTFGGGTKVEIK
notes: Human IgG1null and human Ckappa; also called 09HO2
Consider B5, for which, in test [1], the Kd was 0.43 nM, the koff was found to be 0.0013 s⁻¹ and the kon was 3.1e+06 M⁻¹ s⁻¹. Moreover, in test [2], binding was put at a Kd of 0.25 nM, the off-rate (koff) was found to be 0.0027 s⁻¹ and the kon worked out at 1.1e+07 M⁻¹ s⁻¹. Besides, the “maximum MFI, fold” value in test [3] is more than 20 fold. In test [4], the “maximum MFI, fold” value was more than 20 fold.

B6: 11H02 IgG1null (antibody, V domains shown)
VH: QVQLVESGGGLVKPGGSLRLSCAASGFTFSDYGMSWIRQAPGKGLEWVSTISDSGSYTYYADSVKGRFTISRDNAKNSLYLQMNSLRAEDTAVYYCAREWGDYDGFDNWGQGTLVTVSS
VL: DIQMTQSPSSLSASVGDRVTITCRASQIISSYLSWYQQKPGKAPKLLIYAASSLDSGVPSRFSGSGSGTDFTLTISSLQPEDFATYYCLQYYSTPLTFGGGTKVEIK
notes: as for B2
In test [1], B6 yielded a Kd of 1.3 nM, a dissociation rate constant (koff) of 0.0081 s⁻¹ and a kon of 6.1e+06 M⁻¹ s⁻¹. Further, in test [2], the Kd worked out at 2.1 nM, the koff is 0.037 s⁻¹ and the kon was found to be 1.7e+07 M⁻¹ s⁻¹. Moreover, in test [3], the “maximum MFI, fold” value is more than 20 fold. Besides, the “maximum MFI, fold” value in test [4] is more than 20 fold.
